The values that follow come from paper PMC7432810.

Test [1] deals with Cx36-ECFP (Rattus norvegicus) (UniProt O70610). Kind of test: FRET or BRET; acceptor photobleaching FRET in double transfected Neuro 2a cells fixed with 4% paraformaldehyde; ECFP donor, DsRed acceptor; threshold 1.7% (10 nm); cells untreated or treated before with 2 uM ionomycin or 24 uM BAPTA-AM (10 min), 5 ug/mL BFA (6 h) or 50 uM Dynasore (1 h).
For test [2], the target named is Cx36-DsRed (Rattus norvegicus) (UniProt O70610). The description is as above.

Consider Cav-1-DsRed (natural protein), for which, in test [1], the FRET efficiency came to 5.73; the FRET efficiency (cells treated with 2 uM ionomycin) is 7.33; the FRET efficiency (cells treated with BFA for 6 h) was found to be 3.76; the FRET efficiency (no treatment, control of the Dynasore experiment) was 4.
In test [2], Cav-1-ECFP (natural protein) gave an FRET efficiency of 5.94.
